Source: patent US20170246252A1

Molecular target: endogenous mIL-10 receptors (R1 and R2) on MC/9 mouse mast cells (mouse) (UniProt Q61727)
Test: cell-based or functional assay

UniProt Q61727, sequence (Q61727 17-575, chain 1 of 2): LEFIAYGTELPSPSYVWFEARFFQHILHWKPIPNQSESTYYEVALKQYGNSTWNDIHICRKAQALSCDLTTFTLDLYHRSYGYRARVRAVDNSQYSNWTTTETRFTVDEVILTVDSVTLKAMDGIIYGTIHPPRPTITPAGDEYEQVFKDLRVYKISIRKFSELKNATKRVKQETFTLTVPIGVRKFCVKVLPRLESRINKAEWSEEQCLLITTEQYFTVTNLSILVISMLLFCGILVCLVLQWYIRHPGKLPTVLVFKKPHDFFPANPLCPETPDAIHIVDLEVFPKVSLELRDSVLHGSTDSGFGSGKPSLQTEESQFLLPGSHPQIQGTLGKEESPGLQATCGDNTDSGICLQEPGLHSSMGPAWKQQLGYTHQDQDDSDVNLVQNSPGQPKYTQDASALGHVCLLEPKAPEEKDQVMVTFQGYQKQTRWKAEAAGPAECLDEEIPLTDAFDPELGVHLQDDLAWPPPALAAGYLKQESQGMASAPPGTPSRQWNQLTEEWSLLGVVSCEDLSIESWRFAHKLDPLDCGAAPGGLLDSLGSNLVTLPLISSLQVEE
UniProt Q61727, sequence (Q61190 20-349, chain 2 of 2, further chain): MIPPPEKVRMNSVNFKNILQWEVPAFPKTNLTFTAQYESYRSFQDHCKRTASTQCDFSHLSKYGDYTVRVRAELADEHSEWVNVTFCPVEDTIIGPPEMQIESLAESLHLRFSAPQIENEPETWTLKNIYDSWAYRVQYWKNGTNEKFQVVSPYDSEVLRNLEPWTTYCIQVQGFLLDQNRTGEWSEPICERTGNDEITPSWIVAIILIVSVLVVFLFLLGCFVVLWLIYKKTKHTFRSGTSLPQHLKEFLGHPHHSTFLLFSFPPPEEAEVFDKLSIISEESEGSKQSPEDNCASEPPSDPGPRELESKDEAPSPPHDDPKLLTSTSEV

| Substance | EC50 (ng/mL) in MC/9 Assay (proliferation with mIL-4 co-stimulation, Alamar Blue) [ng/mL] | specific activity in the MC/9 bioassay relative to mIL-10 [fold lower] |
| --- | --- | --- |
| Murine IL-10 (from UniProt P18893 19-178) (ligand) | 0.571 | – |
| PEG-mIL-10 (from UniProt P18893 19-178) (ligand) | 4.04 | 7 |
